Stoichiometry N data for one substance are collected here from article PMC6910826.

The assay concerns the target 6xHis-Zasp52-PK-FLAG (Drosophila melanogaster). The assay can be described thus: cross-linking; purified 6xHis-Zasp52-PK-FLAG incubated with EGS or alone; SDS-PAGE and anti-Flag western blot. On the technique in general: A western blot detects proteins with antibodies after separation by electrophoresis.

In general, stoichiometry N refers to the number of molecules, sites or subunits per partner or assembly.

Chain of 6xHis-Zasp52-PK-FLAG (A1ZA47 whole entry): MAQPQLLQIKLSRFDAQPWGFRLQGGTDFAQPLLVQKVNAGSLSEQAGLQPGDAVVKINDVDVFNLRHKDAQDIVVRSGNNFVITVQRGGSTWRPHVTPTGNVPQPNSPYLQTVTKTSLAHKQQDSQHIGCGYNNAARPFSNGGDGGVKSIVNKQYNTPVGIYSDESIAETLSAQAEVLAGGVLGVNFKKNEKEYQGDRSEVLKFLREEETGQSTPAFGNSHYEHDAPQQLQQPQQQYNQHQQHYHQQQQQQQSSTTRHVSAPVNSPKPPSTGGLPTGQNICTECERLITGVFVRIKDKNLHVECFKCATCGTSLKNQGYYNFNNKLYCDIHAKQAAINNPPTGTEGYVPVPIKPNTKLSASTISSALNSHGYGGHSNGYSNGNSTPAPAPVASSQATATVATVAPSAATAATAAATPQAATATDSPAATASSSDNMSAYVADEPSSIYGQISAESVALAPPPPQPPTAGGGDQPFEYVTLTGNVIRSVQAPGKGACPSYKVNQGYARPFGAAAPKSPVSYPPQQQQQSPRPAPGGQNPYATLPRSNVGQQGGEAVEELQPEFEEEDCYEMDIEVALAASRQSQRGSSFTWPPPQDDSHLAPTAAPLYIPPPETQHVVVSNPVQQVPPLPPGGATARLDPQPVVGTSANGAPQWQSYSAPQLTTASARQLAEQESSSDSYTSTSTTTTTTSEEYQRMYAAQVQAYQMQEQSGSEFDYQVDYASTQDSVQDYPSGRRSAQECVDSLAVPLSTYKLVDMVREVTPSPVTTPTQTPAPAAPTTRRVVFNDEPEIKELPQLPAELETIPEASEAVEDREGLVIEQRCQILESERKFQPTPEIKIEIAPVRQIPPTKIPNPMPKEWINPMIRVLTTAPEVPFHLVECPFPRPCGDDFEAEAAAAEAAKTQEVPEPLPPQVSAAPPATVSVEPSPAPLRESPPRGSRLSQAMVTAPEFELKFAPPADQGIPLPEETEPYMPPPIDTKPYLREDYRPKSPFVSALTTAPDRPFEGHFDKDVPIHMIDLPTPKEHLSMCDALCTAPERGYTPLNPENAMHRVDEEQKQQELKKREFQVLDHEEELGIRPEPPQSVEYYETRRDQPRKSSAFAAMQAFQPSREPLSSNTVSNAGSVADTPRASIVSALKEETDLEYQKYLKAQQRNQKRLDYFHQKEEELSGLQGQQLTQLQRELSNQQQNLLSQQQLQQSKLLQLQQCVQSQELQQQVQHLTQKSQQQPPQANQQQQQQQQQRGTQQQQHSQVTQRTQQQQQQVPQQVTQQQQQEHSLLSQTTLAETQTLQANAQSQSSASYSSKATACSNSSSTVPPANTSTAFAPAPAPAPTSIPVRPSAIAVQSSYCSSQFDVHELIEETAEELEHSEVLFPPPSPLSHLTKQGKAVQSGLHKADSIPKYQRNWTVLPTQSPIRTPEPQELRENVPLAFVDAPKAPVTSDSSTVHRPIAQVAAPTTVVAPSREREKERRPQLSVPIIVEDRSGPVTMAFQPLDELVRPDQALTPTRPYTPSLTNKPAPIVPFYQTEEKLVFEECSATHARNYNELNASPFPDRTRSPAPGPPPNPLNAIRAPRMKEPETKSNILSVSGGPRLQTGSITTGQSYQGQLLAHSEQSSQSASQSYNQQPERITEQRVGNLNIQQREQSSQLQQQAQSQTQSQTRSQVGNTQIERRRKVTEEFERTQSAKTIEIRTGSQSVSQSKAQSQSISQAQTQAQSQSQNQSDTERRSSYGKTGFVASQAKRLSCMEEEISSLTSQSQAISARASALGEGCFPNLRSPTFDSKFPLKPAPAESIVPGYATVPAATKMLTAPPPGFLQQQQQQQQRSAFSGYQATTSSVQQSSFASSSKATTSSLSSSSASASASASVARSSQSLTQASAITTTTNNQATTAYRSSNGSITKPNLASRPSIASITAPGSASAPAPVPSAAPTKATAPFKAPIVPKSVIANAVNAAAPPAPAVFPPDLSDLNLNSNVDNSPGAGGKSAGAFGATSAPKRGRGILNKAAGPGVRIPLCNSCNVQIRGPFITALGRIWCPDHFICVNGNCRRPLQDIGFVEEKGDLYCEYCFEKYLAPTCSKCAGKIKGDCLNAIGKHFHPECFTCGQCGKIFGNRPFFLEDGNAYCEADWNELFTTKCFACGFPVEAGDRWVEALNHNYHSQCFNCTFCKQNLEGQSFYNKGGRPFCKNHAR

6xHis-Zasp52-PK-FLAG (natural protein) showed a stoichiometry N of 2.
